Results on 95 substances are retold here after the supplement of paper PMC12042874.

± gives the uncertainty stated by the source.

The data set can be described thus: amyloid nucleation score (Sup35N fusion, yeast selection) (log enrichment); library NNK3; higher = more nucleation; inactive = no reads after selection. In a few lines:
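Using DiMSum, nucleation scores were taken as the log enrichment of output over input reads, centred on the mode score of non-aggregating sequences. The input and output reads came from Illumina sequencing of plasmid inserts, with sequences under 100 input reads excluded. The yeast were psi-negative, expressed Sup35N fused to peptides of 20 random codons, were induced with 100 μM copper sulfate for 24 hours, and were grown 7 days at 30°C on medium lacking adenine and uracil.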
On to GTTRATPSGPLCMNGKENVV, for which the amyloid nucleation score result is “inactive”.
Take PFPHKDQYHGGGKWPDE: the amyloid nucleation score entry is “inactive”.
VCVRYLFLFFSLIFYSGT: the amyloid nucleation score entry was “inactive”.
Consider IGKFPDRCTFVQTKYFYVRS, for which the amyloid nucleation score was 1.48 ± 0.075.
Regarding MLCAPVANLYCKHPWDS, the amyloid nucleation score entry was “inactive”.
Turning to CYFLQ, the amyloid nucleation score entry was “inactive”.
In the case of ERKCLLCNYHMY, the amyloid nucleation score entry is “inactive”.
For SHVQWPDAFFYRTSFGQLLS, the amyloid nucleation score result is “inactive”.
Consider IRTNYRRGKEAGVSGADSCS, for which the amyloid nucleation score result was “inactive”.
Regarding YLSVIKNTIPEMWIIVGVCR, the amyloid nucleation score result was “inactive”.
For ITRWLIVLAVMYYSILSLSV, the amyloid nucleation score entry was “inactive”.
As to LHGHLGWWNVLDCPICLNFI, the amyloid nucleation score entry is “inactive”.
ADIRFKMRENDMFWSNGWGH: the amyloid nucleation score entry is “inactive”.
For ANRKSRVKSEEWAEVNGCWG, the amyloid nucleation score result is “inactive”.
For YLTSFRFYVFTFR the value was “inactive”; for NMALLEYDSMSFICRYRNRP, “inactive”; for AAPCFVKLLHGLVVRVQVVM, “inactive”.
For FLVLLKTCYDSRPWP, the amyloid nucleation score came to 1.72 ± 0.094.
For ISYSAMVNCPDEIWVRYSSW the value was “inactive”; for GCGSYSDQGRCSTSVSVC, “inactive”; for FSYEMFNAMGYFPIASLCSF, “inactive”.
Consider TMHQLHKFFLHMKGASIDSV, for which the amyloid nucleation score entry was “inactive”.
For NNNPVGILQNSCVGVIFNHS the value was -0.517 ± 1; for ECYCWFVNWLSFCKNGYSGM, “inactive”; for TGFILLTTTVSAINVYQVYR, 2.58 ± 0.056.
In the case of GWWRMAWLV, the amyloid nucleation score entry is “inactive”.
Substance DVFSNMSWYYCNVIWNAYDM registered an amyloid nucleation score of 0.196 ± 0.52.
For the substance FMVSMIIESSAGTFFMLSLV, the amyloid nucleation score entry is “inactive”.
With LCGATCLMFMLHVKCTSGFE, the amyloid nucleation score entry was “inactive”.
The result for WFRTGLAKNSISSGVGVMCH reads “inactive”.
For AFRTFSFLGITS, the amyloid nucleation score entry was “inactive”.
IAGMCGRGWREPLVERSGKD: the amyloid nucleation score result is “inactive”.
In the case of HNRLEAMFY, the amyloid nucleation score entry was “inactive”.
As to RQHGMLCSRSTRMVLFKS, the amyloid nucleation score result was “inactive”.
As for TRTCRIWIKSVMGRRWVIRM, the amyloid nucleation score entry is “inactive”.
As for MSLNNGGSGSCVCPFR, the amyloid nucleation score entry is “inactive”.
The result for VKGGRLISLNRVLFLEDPVG reads “inactive”.
The result for NLTYNTSYAVVDVLRITCNF reads 2.56 ± 0.065; that for QFLLGSWYRLLRSGTVNSPS, “inactive”.
GIVDQFRTVSNNVLNQYEIW: the amyloid nucleation score entry is “inactive”.
For ACVSGIIFLLREQLLKMSGI the value was “inactive”; for NRTFNYNIQNVGSSWEL, 0.233 ± 0.19.
As for PISLCSWATRFCSYFDKHKL, the amyloid nucleation score entry is “inactive”.
The substance NSGDGSGVRFYSDNMDTYMA gave an amyloid nucleation score of 0.185 ± 0.88.
For IYLMISWQWGSGLQPNIRPA, the amyloid nucleation score result was “inactive”.
With FYILCHHKDCNIGHPILGGK, the amyloid nucleation score entry was “inactive”.
Turning to MAVSRK, the amyloid nucleation score entry is “inactive”.
With SFMRRCNVCIRLYSLAFDMT, the amyloid nucleation score is 0.542 ± 0.23.
Consider LHNCPVDGWAAVSRSVVGRE, for which the amyloid nucleation score entry was “inactive”.
As for ILPGRHCGGASMHTQTCQ, the amyloid nucleation score result is “inactive”.
Turning to VGIKTFGESGMYQVCSQVSC, the amyloid nucleation score result is “inactive”.
FNIYCVGPNYATRGAGWVLL came in with an amyloid nucleation score of 1.78 ± 0.095.
In turn, FINAVAIRMIILVSRTRPTF returned an amyloid nucleation score of 0.984 ± 0.12.
For the substance RLYRRSCVSSR, the amyloid nucleation score entry is “inactive”.
As to TANLGRCYCKLSNFTSGWFL, the amyloid nucleation score result is “inactive”.
MTSFIFDVFCSCSCLYQRPL: the amyloid nucleation score result was “inactive”.
RNSLFLLPSTCSVYIWCFS came in with an amyloid nucleation score of 2.8 ± 0.081.
Take VSTCT: the amyloid nucleation score entry is “inactive”.
Consider CLTTVRLRNYFF, for which the amyloid nucleation score result was “inactive”.
As for TMVLIICDN, the amyloid nucleation score entry was “inactive”.
Consider GGVRPVKYGSVWVYRFWDQC, for which the amyloid nucleation score result was “inactive”.
LSGVLLILSMYLDYWTNIF: the amyloid nucleation score result was “inactive”.
Regarding YEKYDTKVWNCG, the amyloid nucleation score result is “inactive”.
In the case of FKRTTMCGDYAVYVTPGTSL, the amyloid nucleation score result was “inactive”.
LFLLNVAYCNCFT showed an amyloid nucleation score of 3.27 ± 0.059.
The result for SSQLDHVRLSGYVLTLEGPF reads “inactive”.
As to GVGSRG, the amyloid nucleation score result is “inactive”.
Consider YGFRVCYPQASMSTVVEHSR, for which the amyloid nucleation score entry was “inactive”.
Take SGNTNDSSMHHQNLFFSA: the amyloid nucleation score result was “inactive”.
On to ISNLRSVVLWNSRLQRNRGW, for which the amyloid nucleation score result is “inactive”.
Consider TCNIFLGAPHGAVGRCCRAR, for which the amyloid nucleation score came out at 1.82 ± 0.11.
For the substance SIDYADVK, the amyloid nucleation score result was “inactive”.
With GKISTRFRFFSVDETRPTIN, the amyloid nucleation score is 1.18 ± 0.15.
As for HVTRLVFMNSRYVAKFVGRA, the amyloid nucleation score result was “inactive”.
For SNEGE, the amyloid nucleation score entry was “inactive”.
For RSYFYTCDSLDALHVHLASH the value was “inactive”.
The result for SHKFRMITIGPSSMIGALTC reads “inactive”; that for RSVVRFWFFLINRHVYELSL, “inactive”; that for NESLIKVCSALILRKNMCGP, “inactive”.
Turning to DTSGSCSILTRSRNMSFWRR, the amyloid nucleation score result is “inactive”.
Substance YWNMKNFCSTTIIHRKGRFG registered an amyloid nucleation score of 0.65 ± 0.16.
As for NFATRDNWYRVTQTLEDWIK, the amyloid nucleation score entry is “inactive”.
As for NDVPLDRQLVDGYIASARFG, the amyloid nucleation score result was “inactive”.
As to RTPVKGDRKSWTDRPISTAY, the amyloid nucleation score result is “inactive”.
As for DQMTHFYYPRNRPRFAISLA, the amyloid nucleation score result was “inactive”.
Take LVVIG: the amyloid nucleation score result was “inactive”.
As to GYQNVSTHRVKALAHRIWVG, the amyloid nucleation score result was “inactive”.
Consider TTGMRYCLVFDIGFSFWLFM, for which the amyloid nucleation score entry was “inactive”.
Turning to NTAYHKRRGW, the amyloid nucleation score is -0.004 ± 0.71.
Regarding LRNIMGECDSAWKDVMVGVA, the amyloid nucleation score result is “inactive”.
LLKEFIL: the amyloid nucleation score entry is “inactive”.
For SWVVDITDRRSLFIDTPRFT the value was “inactive”.
FRRLHQGLWKMYS: the amyloid nucleation score entry is “inactive”.
For TWQVFSASVTVSLSYTSK, the amyloid nucleation score entry was “inactive”.
Consider VQTWWLNMCLLPRKSTYTHL, for which the amyloid nucleation score result is “inactive”.
